Publication PMC2898367 (The Journal of Biological Chemistry, 2010)

T1: CD81 tagged with AcGFP or DsRED (UniProt P60033 1-236)
T1 sequence (looked up): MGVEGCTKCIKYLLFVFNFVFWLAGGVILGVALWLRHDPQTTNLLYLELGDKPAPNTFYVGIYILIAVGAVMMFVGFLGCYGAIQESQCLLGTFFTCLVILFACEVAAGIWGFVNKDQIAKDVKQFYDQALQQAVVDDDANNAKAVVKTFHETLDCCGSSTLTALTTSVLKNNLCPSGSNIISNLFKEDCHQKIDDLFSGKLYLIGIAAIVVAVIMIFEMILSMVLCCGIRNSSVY

T2: DsRED-tagged Occludin (UniProt Q16625 1-522)
T2 sequence (looked up): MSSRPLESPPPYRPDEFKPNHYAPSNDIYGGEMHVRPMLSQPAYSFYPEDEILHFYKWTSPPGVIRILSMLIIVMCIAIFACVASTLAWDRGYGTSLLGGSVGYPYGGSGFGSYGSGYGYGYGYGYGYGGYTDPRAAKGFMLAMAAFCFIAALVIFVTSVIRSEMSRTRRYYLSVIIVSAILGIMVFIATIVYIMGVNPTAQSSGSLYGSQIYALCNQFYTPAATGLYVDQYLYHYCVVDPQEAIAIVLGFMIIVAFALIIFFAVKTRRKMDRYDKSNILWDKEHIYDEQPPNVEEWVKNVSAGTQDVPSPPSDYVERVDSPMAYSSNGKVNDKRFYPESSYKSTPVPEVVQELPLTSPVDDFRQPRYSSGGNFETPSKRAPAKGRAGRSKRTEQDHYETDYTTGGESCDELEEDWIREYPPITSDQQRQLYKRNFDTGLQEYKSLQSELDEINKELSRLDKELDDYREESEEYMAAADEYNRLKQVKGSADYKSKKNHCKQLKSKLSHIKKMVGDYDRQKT

T3: CD81 tagged with AcGFP or DsRED, P60033
T3 chain: T1 sequence (looked up)

B1: AcGFP-tagged Claudin-9 (natural protein, UniProt O95484 1-217, looked up)
chain: MASTGLELLGMTLAVLGWLGTLVSCALPLWKVTAFIGNSIVVAQVVWEGLWMSCVVQSTGQMQCKVYDSLLALPQDLQAARALCVIALLLALLGLLVAITGAQCTTCVEDEGAKARIVLTAGVILLLAGILVLIPVCWTAHAIIQDFYNPLVAEALKRELGASLYLGWAAAALLMLGGGLLCCTCPPPQVERPRGPRLGYSIPSRSGASGLDKRDYV
B2: Claudin-1 tagged with AcGFP or DsRED (natural protein, UniProt O95832 1-211, looked up)
chain: MANAGLQLLGFILAFLGWIGAIVSTALPQWRIYSYAGDNIVTAQAMYEGLWMSCVSQSTGQIQCKVFDSLLNLSSTLQATRALMVVGILLGVIAIFVATVGMKCMKCLEDDEVQKMRMAVIGGAIFLLAGLAILVATAWYGNRIVQEFYDPMTPVNARYEFGQALFTGWAAASLCLLGGALLCCSCPRKTTSYPTPRPYPKPAPSSGKDYV
B3: AcGFP-tagged Claudin-6 (natural protein, UniProt P56747 1-220, looked up)
chain: MASAGMQILGVVLTLLGWVNGLVSCALPMWKVTAFIGNSIVVAQVVWEGLWMSCVVQSTGQMQCKVYDSLLALPQDLQAARALCVIALLVALFGLLVYLAGAKCTTCVEEKDSKARLVLTSGIVFVISGVLTLIPVCWTAHAIIRDFYNPLVAEAQKRELGASLYLGWAASGLLLLGGGLLCCTCPSGGSQGPSHYMARYSTSAPAISRGPSEYPTKNYV
B4: AcGFP-tagged Claudin-12 (natural protein, UniProt P56749 1-244, looked up)
chain: MGCRDVHAATVLSFLCGIASVAGLFAGTLLPNWRKLRLITFNRNEKNLTVYTGLWVKCARYDGSSDCLMYDTTWYSSVDQLDLRVLQFALPLSMLIAMGALLLCLIGMCNTAFRSSVPNIKLAKCLVNSAGCHLVAGLLFFLAGTVSLSPSIWVIFYNIHLNKKFEPVFSFDYAVYVTIASAGGLFMTSLILFIWYCTCKSLPSPFWQPLYSHPPSMHTYSQPYSARSRLSAIEIDIPVVSHTT
B5: AcGFP-tagged Claudin-17 (natural protein, UniProt P56750 1-224, looked up)
chain: MAFYPLQIAGLVLGFLGMVGTLATTLLPQWRVSAFVGSNIIVFERLWEGLWMNCIRQARVRLQCKFYSSLLALPPALETARALMCVAVALSLIALLIGICGMKQVQCTGSNERAKAYLLGTSGVLFILTGIFVLIPVSWTANIIIRDFYNPAIHIGQKRELGAALFLGWASAAVLFIGGGLLCGFCCCNRKKQGYRYPVPGYRVPHTDKRRNTTMLSKTSTSYV
B6: CD81 tagged with AcGFP or DsRED, P60033 1-236 (natural protein)
chain: T1 sequence (looked up)
B7: AcGFP-tagged Claudin-4 (natural protein, UniProt O14493 1-209, looked up)
chain: MASMGLQVMGIALAVLGWLAVMLCCALPMWRVTAFIGSNIVTSQTIWEGLWMNCVVQSTGQMQCKVYDSLLALPQDLQAARALVIISIIVAALGVLLSVVGGKCTNCLEDESAKAKTMIVAGVVFLLAGLMVIVPVSWTAHNIIQDFYNPLVASGQKREMGASLYVGWAASGLLLLGGGLLCCNCPPRTDKPYSAKYSAARSAAASNYV
B8: AcGFP-tagged Claudin-11 (natural protein, UniProt O75508 1-207, looked up)
chain: MVATCLQVVGFVTSFVGWIGVIVTTSTNDWVVTCGYTIPTCRKLDELGSKGLWADCVMATGLYHCKPLVDILILPGYVQACRALMIAASVLGLPAILLLLTVLPCIRMGQEPGVAKYRRAQLAGVLLILLALCALVATIWFPVCAHRETTIVSFGYSLYAGWIGAVLCLVGGCVILCCAGDAQAFGENRFYYTAGSSSPTHAKSAHV

What was measured:
Experiment in all cases: FRET or BRET
[1] = biological target: CD81 tagged with AcGFP or DsRED (UniProt P60033)
[2] = biological target: T1, CD81 tagged with AcGFP or DsRED
[3] = biological target: B2
DsRED-tagged Occludin = biological target: T2, DsRED-tagged Occludin
[4] = biological target: T3, CD81 tagged with AcGFP or DsRED, P60033; details: remark: other sources report otherwise

| %FRET [3] [%] | %FRET (DsRED-tagged Occludin) [%] | Molecule | further results |
| --- | --- | --- | --- |
| – | – | Claudin-1 tagged with AcGFP or DsRED (from UniProt O95832 1-211) (natural protein) | %FRET [1]: 25%; %FRET (after 10 mM MβCD, 1 h) [1]: 35% |
| 18 | 18 | B1 | %FRET [2]: 63% |
| – | 48 | B2 | – |
| 31 | 27 | B3 | %FRET [2]: 50% |
| – | 38 | B4 | – |
| – | 40 | B5 | – |
| – | – | B6 | %FRET (after 10 mM MβCD, 1 h) [4]: 55%; %FRET (untreated cells) [4]: 63% |
| 18 | – | B7 | – |
| – | 23 | B8 | – |
